Laboratory results taken from US20240018502A1.

Tests used:
[1] = target: plasma purified human complement protein C3 (human) (UniProt P01024); test: cell-based or functional assay
[2] = target: human complement protein C3 (human) (UniProt P01024); test: cell-based or functional assay
human complement protein C3 (human), sequence (P01024 23-667, chain 1 of 2): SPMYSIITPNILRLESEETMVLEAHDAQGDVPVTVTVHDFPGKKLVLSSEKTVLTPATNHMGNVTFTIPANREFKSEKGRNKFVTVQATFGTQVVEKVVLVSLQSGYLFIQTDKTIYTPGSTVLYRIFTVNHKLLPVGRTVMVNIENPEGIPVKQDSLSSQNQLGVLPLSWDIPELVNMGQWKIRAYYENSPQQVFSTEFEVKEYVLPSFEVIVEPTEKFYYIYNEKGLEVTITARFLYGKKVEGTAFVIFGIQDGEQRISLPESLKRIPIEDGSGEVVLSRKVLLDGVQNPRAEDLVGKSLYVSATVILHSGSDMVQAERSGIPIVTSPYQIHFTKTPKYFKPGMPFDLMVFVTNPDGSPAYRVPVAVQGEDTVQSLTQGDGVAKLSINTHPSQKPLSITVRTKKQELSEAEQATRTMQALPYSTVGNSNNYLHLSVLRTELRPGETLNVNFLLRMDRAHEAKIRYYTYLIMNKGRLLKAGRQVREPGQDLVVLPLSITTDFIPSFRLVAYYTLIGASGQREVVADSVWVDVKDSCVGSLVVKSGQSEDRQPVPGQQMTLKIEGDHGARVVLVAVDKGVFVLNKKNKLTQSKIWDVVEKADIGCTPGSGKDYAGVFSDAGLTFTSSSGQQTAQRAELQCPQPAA
human complement protein C3 (human), sequence (P01024 672-1663, chain 2 of 2): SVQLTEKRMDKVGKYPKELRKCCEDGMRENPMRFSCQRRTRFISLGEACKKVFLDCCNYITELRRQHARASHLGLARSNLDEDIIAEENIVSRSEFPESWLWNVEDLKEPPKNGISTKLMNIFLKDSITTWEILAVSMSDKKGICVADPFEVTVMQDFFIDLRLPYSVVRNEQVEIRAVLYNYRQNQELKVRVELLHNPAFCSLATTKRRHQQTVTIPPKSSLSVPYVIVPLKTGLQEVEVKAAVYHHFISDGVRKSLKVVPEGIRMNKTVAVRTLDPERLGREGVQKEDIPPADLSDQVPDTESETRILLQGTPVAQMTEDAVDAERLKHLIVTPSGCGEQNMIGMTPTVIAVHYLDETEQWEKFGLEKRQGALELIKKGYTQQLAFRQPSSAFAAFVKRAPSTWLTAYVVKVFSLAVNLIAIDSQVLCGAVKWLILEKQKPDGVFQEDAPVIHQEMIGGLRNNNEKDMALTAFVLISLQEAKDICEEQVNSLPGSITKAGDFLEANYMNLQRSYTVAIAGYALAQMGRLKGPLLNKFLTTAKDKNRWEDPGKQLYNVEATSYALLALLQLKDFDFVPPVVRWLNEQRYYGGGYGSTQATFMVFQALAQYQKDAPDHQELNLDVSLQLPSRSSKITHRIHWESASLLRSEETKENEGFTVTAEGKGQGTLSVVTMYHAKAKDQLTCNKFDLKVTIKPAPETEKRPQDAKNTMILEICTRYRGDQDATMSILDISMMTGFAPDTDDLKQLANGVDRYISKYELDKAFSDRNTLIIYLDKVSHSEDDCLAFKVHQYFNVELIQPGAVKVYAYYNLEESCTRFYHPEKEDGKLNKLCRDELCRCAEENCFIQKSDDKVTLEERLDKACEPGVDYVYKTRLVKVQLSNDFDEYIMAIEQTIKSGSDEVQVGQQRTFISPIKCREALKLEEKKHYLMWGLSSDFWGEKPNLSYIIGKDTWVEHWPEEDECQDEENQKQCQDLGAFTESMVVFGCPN

plasma purified human complement protein C3 (human), sequence (P01024 23-667, chain 1 of 2): as the sequence (P01024 23-667, chain 1 of 2) above
plasma purified human complement protein C3 (human), sequence (P01024 672-1663, chain 2 of 2): as the sequence (P01024 672-1663, chain 2 of 2) above

Substance | EC50 of hC3 cleavage [1] [nM] | other results
MTSP-1 H40R/I41H/Y60gL/F97D/F99L/C122S/G151N/Q175M/D217I/K224S (from UniProt Q9Y5Y6 615-855) (enzyme) | 7.41 | 
Q38Y/I41S/D60bT/F60eR/Y60gW/D96M/F97N/T98G/F99L/C122S/Q175L/Q192D (from UniProt Q9Y5Y6 615-855) (enzyme) |  | EC50 (nM), cleavage of purified hC3 in vitro [2]: 3.75 nM
MTSP-1 protease domain Q38Y/I41S/D60bT/F60eR/Y60gW/D96M/F97N/T98G/F99L/C122S/Q175L/Q192D (from UniProt Q9Y5Y6 615-855) (enzyme) |  | EC50 hC3 cleavage [1]: 3.75 nM

The next lines start with results.

EC50 of hC3 cleavage [1] [nM] | Substance | other results
14.9 | MTSP-1 H40R/I41H/F97D/F99L/C122S/Q175L/Q192G/D217Q/K224R (from UniProt Q9Y5Y6 615-855) (enzyme) | 
1530 | MTSP-1 H40R/I41H/F97D/F99L/C122S/G151D/Q192G (from UniProt Q9Y5Y6 615-855) (enzyme) | 
